For three molecules, Tpm/Tmod ratio, stoichiometry N (Tpm1.1 per Tmod1) and decrease of the sliding velocity of thin filaments containing Tpm1.1 over sheep ventricular myosin results are on record in paper PMC12109978.

For experiment [1], the target named is human tropomodulin 4 (Tmod4) (human) (UniProt Q9NZQ9). Put plainly: pull-down; His-tagged Tmod4 (6 µM) incubated 20 min with 3 to 24 µM Tpm in 30 mM HEPES-Na, 200 mM NaCl, pH 7.3, then captured on IMAC Ni-charged resin, eluted with 500 mM imidazole; SDS-PAGE, densitometry.
In experiment [2] the target is human tropomodulin 1 (Tmod1) (human) (UniProt P28289). Put plainly: SEC; Superose 6 Increase 10/300 GL, 50 mM HEPES-Na pH 7.3, 150 mM NaCl, 1 mM DTT, 0.5 mL/min, 280 nm; 30 µM Tpm and Tmod1, or 26 µM Tpm and 13 µM Tmod4; single proteins and mixtures. Background: SEC sorts molecules by how far they enter the pores of the column.
Experiment [3] has as its target human tropomyosin Tpm1.1 with Ala-Ser N-terminal extension (human).

Sequence of UniProt Q9NZQ9 (Q9NZQ9 whole entry): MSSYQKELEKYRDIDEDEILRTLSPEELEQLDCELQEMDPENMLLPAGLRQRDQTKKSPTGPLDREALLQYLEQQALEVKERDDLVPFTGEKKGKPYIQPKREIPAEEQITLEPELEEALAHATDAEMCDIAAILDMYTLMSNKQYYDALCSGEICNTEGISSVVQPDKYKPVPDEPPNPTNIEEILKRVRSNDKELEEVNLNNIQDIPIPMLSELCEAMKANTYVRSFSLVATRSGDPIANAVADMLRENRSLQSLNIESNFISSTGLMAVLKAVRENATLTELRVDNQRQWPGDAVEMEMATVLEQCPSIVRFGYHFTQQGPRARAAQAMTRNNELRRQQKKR

For the molecule “human tropomyosin Tpm1.2 with Ala-Ser N-terminal extension (natural protein)”, the Tpm/Tmod ratio at which saturation is reached (Tpm/Tmod ratio) in experiment [1] turned out to be 2.5.

With “human tropomyosin Tpm1.1 with Ala-Ser N-terminal extension (natural protein)”, the Tpm/Tmod ratio at which saturation is reached (Tpm/Tmod ratio) in experiment [1] was found to be 3. Besides, the stoichiometry N (Tpm1.1 per Tmod1) in experiment [2] came to 2.

B1: human tropomodulin 1 (Tmod1) (natural protein)
chain: MSYRRELEKYRDLDEDEILGALTEEELRTLENELDELDPDNALLPAGLRQKDQTTKAPTGPFKREELLDHLEKQAKEFKDREDLVPYTGEKRGKVWVPKQKPLDPVLESVTLEPELEEALANASDAELCDIAAILGMHTLMSNQQYYQALSSSSIMNKEGLNSVIKPTQYKPVPDEEPNSTDVEETLERIKNNDPKLEEVNLNNIRNIPIPTLKAYAEALKENSYVKKFSIVGTRSNDPVAYALAEMLKENKVLKTLNVESNFISGAGILRLVEALPYNTSLVEMKIDNQSQPLGNKVEMEIVSMLEKNATLLKFGYHFTQQGPRLRASNAMMNNNDLVRKRRLADLTGPIIPKCRSGV
As for B1, in experiment [3], the decrease of the sliding velocity of thin filaments containing Tpm1.1 over sheep ventricular myosin at pCa 5.2 by 500 nM Tmod1 turned out to be 30%.
